In the DeepSol protein solubility set:

Test: soluble on expression in E. coli; label from the status in PepcDB or PDB records

| Sequence | soluble on expression in E. coli |
| --- | --- |
| MQWRRCKVITRDFLMNADCKTAFGAIEESLLWSAEQRAASLAATLACRPDEGPVWIFGYGSLMWNPALEFTESCTGTLVGWHRAFCLRLTAGRGTAHQPGRMLALKEGGRTTGVAYRLPEETLEQELTLLWKREMITGCYLPTWCQLDLDDGRTVNAIVFIMDPRHPEYESDTRAQVIAPLIAAASGPLGTNAQYLFSLEQELIKLGMQDDGLNDLLVSVKKLLAENYPDGVLRPGFALEHHHHHH | not soluble |
| MRCPWRKTRRHSDNGWYGPRNQIRPDDHRLHRKVRKSRGDSRRAGNGSPRARCFEGAQRRGKSDGLSECGRMKNLLEMVELVRGKRMKIAVGAAEDEEVLKAVARAKEEEIVDPVLFGKRKDIETLVERMNLELEAEIVHVEDPFEAVRKAVESVSRNETQILMKGKIKTSDLFSVFLKKEYGLRTGRTLSAVSVHEVPGYHKILIISDGGLVISPNLQQRMDIVENSILVARALGIEKPKIALLGTGDLKSPLTLEIAALSKIFQQRNDCIVDGPLTLDLAISEELASKAGNSPVAGDADILIVPSIETGNILSKSLVYMARGRAAIVVVGGRVPVVLTSRADDEETRFLSIALSVLVAQKKG | soluble |
| MRDAEKTVGNMIDKLKTAFIGSIDSEGFPNMKAMLQPRKREGIKTIYLTTNTSSMRVAQYRENNHACIYFCDTRFFRGVMLRGTMEVLTDPASKEMIWQEGDTMYYPEGVTDPDYCVLKFTAISGRFYSNFKSESFAVE | not soluble |
| MRDIVFIERDPYAPIRHCYTVSKILYQGKSPYQEIQVIESPEFGRMLILDGVVQLDEKYEFLYHEYLAHVPLHAHPNPRNVLIIGGGDGGTLREVLKHDIVERAVLVDIDKEVIEVSKKYLPTLSVGFQDPRAIVVNEDGYKYVQDYENEFDVIIVDSTDPVGFAHVLTTEDFFRHVYKALKEDGIFVAQTESIHYHLEMVSNIQQRLKKVFPIVDLYTSVIPIYAGYWWTFSIASKKYPVRTPAREVKVQTKIYDADMHEYAFLPESFYNKIVNGEYKYLEHHHHHH | not soluble |
| MRDPEFWHNKWAANQIGFHLEDVNPLLIRFWSDLAPKRSEKVLVPLCGKSEDLIWLANQHDSVQGVELSQIAVRSFFAEHFYTPTVTRLNAQHELYQFDELTLFTGDFFTAPVESVDLVYDRAALVALPEEMRAEYAQRVLQLLKPGGRILLVSMDYVQTELSGPPFSVPEAEIRTLFMGCEVRRVYQDTSIDPHLNKRTQAGLSRFAEEVWVIEKSE | not soluble |
| MRDYVEIGMGREARRTYHLDSVAIVPSRRTRSSKDVDTTWHIDAYTFDIPFMSHPTDALATPDFVIEMDKQGGLGVINAEGLWGRHADLDAAIQEVITAYGDDELDLGSCNRATKKLQELHAAALDTELLVERIAQVRSSGAT | not soluble |
| MREAMFYEKLDDNKVRCHICPRHCIIKEGERGFCWNRENINGVLYAVGYGKVCSLAIDPIEKKPLFHFYPTTQVVSLAIGGCNFRCLHCQNWTISQFPPDEIPYREMTPEEIVEVAIRYNCPGISYTYTEPTVYYEFMYDTSVIARENGMFNVMITNGYIEKEPLKALPVDAMNIDIKGNADFYKKVCKATLEPVLETCKLAKKLGIWVEVTNLIVPNYNDNIDDLLFIIHFVRDELGRETPLHFSRFHPDYKLTDVPPTPIETLEMARNLAIEEGLKYVYIGNVPGHEGENTYCPNCGALLIERYIFNAKIINLDVETKRCKICGEKIDIVL | not soluble |
| MREDNQSLSHTTWNCKYHIVFAPKYRRQIIYGRYKASIGRIIRDLCERKGVIIHEANACSDHIHMLISIPPKLSVSSFMGYLKGKSSLMIFDKHANLKYKYGNRKFWCRGYYVDTVGRNQKVIAEYIQNQLQEDRVADQLTLFESVDPFTGEINKRK | not soluble |
| MREILNHFDRPLNKKNSFQKIQNLSCQTHTKRFYREVKISCEEGGFSVLLDGCPVKTPAKRHFCLPTEVFAAFVAEEFENQKQVIDPAKMPMTRLVNTVIDGIADNMQAVFEDLLRFVACDMIFYRAQTPKELVQRQCEQWDPLLDWAEEKLGARFHVTEGLMHIEQSRESIQAVSNYLRKVESPYMLAALHTITTLTGSALIALAFSEGKIDSEHAWKIAHLDENWMMEQWGIDEETLARSSHKKSEFDAAGTIITTCLLEHHHHHH | not soluble |
| MREIVSIHIGQAGVQIGNACWELYCLEHGITPDGLMPDDTSYGVEDQSYNTFFSETPSGKHVPRAIFVDLEPTVIDEVRTGTYAKLFHPEQLISGKEDAANNYARGHYTIGKELIDVVMDRVRRLTERCQSLQGFLIFHSFGGGTGSGFTSLVMERLSIDYGKKAKLEFSIYPAPQISTSMVEPYNSLLTTHTTLEHSDCSFIMDNEAIYEITKVNLGVRSPTYTHLNRLLAQVVSSITASLRFDGALNVDLTEFQTNLVPYPRIHFPLVTYAPIISAEKAYHEQLSVSEITNVCFEPGSQMVKCDPRNGKYMACCLLYRGDVVPKEINSAISTIKTKRAIQFVDWCPTGFKVGINYQPPTVVPGGDMAKLQRAVCMLSNTTAIQEAWARLDHKFDLMYAKRAFVHWYVGEGMEEGEFSEAREDMAALEKDYEEVGVDSFDPNDEEY | not soluble |
| MREMKKLVKIATSLTLMGGIFVSANGVSANTDVTQKSSPNIMIEFDDVTTDHWAYDEITNLVYHRIMYGYGNGKFGTEDNITREQAAAVLHRALGLKRSVFDANPYGDISGKSTMFPYEILHLTNLGIFKGDENGNFRPKDTLTRAELAQILTKAYELKAKSPHTFTDIPEKHWARDAISALQSNKVAVGTGDGKFEPEMLVTRGQFAKFLQRSIDNSPGKME | not soluble |
| MREPIVAIATPYGESAIGIVRLSGKGVLDLVKKFFKTKREIKPRYAHFGVLYDDKGEELDEGVLIYYKAPHSYTGEDMVELNLHGNPRILKRALELFVNAGARLAEPGEFTKRAFLNGKLDLTQAEAVAELISAKTELARKVALKQLHGELSKHIRPLRETLLELLAYVEADIEFAEEDIPTLTKEQVIQMVDKVIEGINELLKTAKTGKFIREGVKLAIVGRPNVGKSSLFNALLKEERAIVTDIAGTTRDFIEETLQIKGVPVRLVDTAGIRETKDLVERIGVERSKQKVKEADLILFVIDASQEITEEDLRIYEEIKEKDHIVVANKVDLGIRANLEKFKGEKIVKVSALKGTGLEELSEEILKKVGANLEESVNIYISVRHETLLKKAKEVLERFKEEFREKDISPEIAMLDLREASDYLGEILGEITTEDLLGKIFSTFCIGK | soluble |
| MREQSGINGHEQLATFIDRTDRVLNLVDGFMPETAWLSDIETLTYLHATVSTHRHQVRVPETPMHLDAILADQVLTGGLEPRLGQAHLRTLTIMGFPSQTWPGLLDDLNRLAFDYRWVTRAICLDKTDAAKVLGRIRRQWFAKRKSIAAMLKEIMTNEASALMDSDAANKAVDADMALQELGSDLVGAAYVTATVTIWNDDPRIADERLRLVEKVIQGRDFTCMVERVNAVEAWLGSLPGHVYANVRQPPVSTLNLAHMMPFSAVWAGPERDEHFDAPPLFLAKTEGSTPFRFSLHVGDVGHTLVVGPTGAGKSVLLALMALQFRRYARSQIFAFDFGGSIRAAALAMRGDWHDLGGSLAEDASEPVALQPLAGIDAEEERAWAAEWVAAILAREKVEITPDVKEHVWSALNNLASAPKSERTLTGLSVLLQSQALKQALKPYCVGGPWGRLLDAETERVGSADVLAFETEGLIGTGAAAAVLAYLFHRIEHRLDGRPTLLIVDEGWLALDDEGFASQLREWLKTLRKKNASVIFATQSLADIDGSAIAPAIIESCPTRLFLPNERALEPQIATIYERFGLNDRQIEILSRATPKRDYYCQSRRGNRLFELGLGEVALAFTAASSKGDQILIARLMAEHGPTGFAKAWLEARGVAWATDLIITPQKEKLPLEHHHHHH | soluble |
| MREVKLVTFDVWNTLLDLNIMLDEFSHQLAKISGLHIKDVANAVIEVRNEIKKMRAQASEDPRKVLTGSQEALAGKLKVDVELVKRATARAILNVDESLVLEGTKEALQFVKERGLKTAVIGNVMFWPGSYTRLLLERFGLMEFIDKTFFADEVLSYKPRKEMFEKVLNSFEVKPEESLHIGDTYAEDYQGARKVGMWAVWINQEGDKVRKLEERGFEIPSIANLKDVIELISKT | soluble |
| MREVLYRSDIYVFGRYPMSSFIGYPGLSSSSFCTHINFFYASSCTSTARVFRKKWREIFFVLARKNFTSRAKSKIFPRHVFRDMNKEIFRTQTI | not soluble |
| MREYKLVVLGSGGVGKSALTVQFVQGIFVDEYDPTIEDSYRKQVEVDCQQCMLEILDTAGTEQFTAMRDLYMKNGQGFALVYSITAQSTFNDLQDLREQILRVKDTEDVPMILVGNKCDLEDERVVGKEQGQNLARQWCNCAFLESSAKSKINVNEIFYDLVRQINR | soluble |
| MRFFKHYAPSMIAKHISRLFNGKIHIHGIGEFRFKDGQLVAPTEAEREHYKMVKEINSEITRLKMAYLEHHHHHH | not soluble |
| MRFIHALLLAGIAHSAYASEKLTFKTDLEKLEREKAAQIGVAIVDPQGEIVAGHRMAQRFAMCSTFKFPLAALVFERIDSGTERGDRKLSYGPDMIVEWSPATERFLASGHMTVLEAAQAAVQLSDNGATNLLLREIGGPAAMTQYFRKIGDSVSRLDRKEPEMGDNTPGDLRDTTTPIAMARTVAKVLYGGALTSTSTHTIERWLIGNQTGDATLRAGFPKDWVVGEKTGTCANGGRNDIGFFKAQERDYAVAVYTTAPKLSAVERDELVASVGQVITQLILSTDK | soluble |
| MRFLHTADWQLGMTRHFLNGEAQPRYSASRREAVASLGEIAKRTGAEFVVVSGDVFEHNQLAPRDVSQSLEAMRAIGVPVYLLPGNHDPLDASSVYTSALFVAERPDNVVVLDRAGVHEVRPGVQIVAAPWRSKAPTSDLIGDVLADLPADGVTRVLVGHGGVDILDPDKNKPSLIRMAAVEDALARGAVHYVALGDKHSRTEVGGSGRVWYSGSPEVTNYDDIESDPGHVLVVDIDENDARRAVRVESEKVGRWRFVTLRRSVDTDRDIADLDLNLDLLDDKERTVVRLALTGSLTVTDKAKLDECLDRYARLFAALTTWERHTDIAVIPADGEFDDLGIGGFAAAAVDELVATARSEAAEAEDARAALGLLLRLVDRDKGAALEHHHHHH | soluble |
| MRFNHFSIVDKNFDEQLAELDQLGFRWSVFWDEKKILKDFLIQSPSDMTALQATAELDVIEFLKSSIELDWEIFWNIALQLLDFVPNFDFEIGKAFEYAKNSNLPQIEAEMTTENIISAFYYLLCTRRKTGMILVEHWVSEGLLPLDNHYHFFNDKSLATFDSSLLEREVLWVESPVDSEQRGENDLIKIQIIRPKSTEKLPVVMTASPYHLGINDKANDLALHDMNVELEEKTSHEIHVEQKLPQKLSAKAKELPIVDKAPYRFTHGWTYSLNDYFLTRGFASIYVAGVGTRSSDGFQTSGDYQQIYSMTAVIDWLNGRARAYTSRKKTHEIKASWANGKVAMTGKSYLGTMAYGAATTGVEGLELILAEAGISSWYNYYRENGLVRSPGGFPGEDLDVLAALTYSRNLDGADFLKGNAEYEKRLAEMTAALDRKSGDYNQFWHDRNYLINTDKVKADVLIVHGLQDWNVTPEQAYNFWKALPEGHAKHAFLHRGAHIYMNSWQSIDFSETINAYFVAKLLDRDLNLNLPPVILQENSKDQVWTMMNDFGANTQIKLPLGKTAVSFAQFDNNYDDETFKKYSKDFNVFKKDLFENKANEAVIDLELPSMLTINGPVELELRLKLNDTKGFLSAQILDFGQKKRLEDKVRVKDFKVLDRGRNFMLDDLVELPLVESPYQLVTKGFTNLQNQSLLTVSDLKADEWFTIKFELQPTIYHLEKADKLRVILYSTDFEHTVRDNRKVTYEIDLSQSKLIIPIESVKN | soluble |
